According to patent US20220040266A1:

Target: growth hormone receptor (GHR) on pancreatic cancer cells (human) (UniProt P10912)
Assay: cell-based or functional assay

UniProt P10912, sequence (P10912 19-638): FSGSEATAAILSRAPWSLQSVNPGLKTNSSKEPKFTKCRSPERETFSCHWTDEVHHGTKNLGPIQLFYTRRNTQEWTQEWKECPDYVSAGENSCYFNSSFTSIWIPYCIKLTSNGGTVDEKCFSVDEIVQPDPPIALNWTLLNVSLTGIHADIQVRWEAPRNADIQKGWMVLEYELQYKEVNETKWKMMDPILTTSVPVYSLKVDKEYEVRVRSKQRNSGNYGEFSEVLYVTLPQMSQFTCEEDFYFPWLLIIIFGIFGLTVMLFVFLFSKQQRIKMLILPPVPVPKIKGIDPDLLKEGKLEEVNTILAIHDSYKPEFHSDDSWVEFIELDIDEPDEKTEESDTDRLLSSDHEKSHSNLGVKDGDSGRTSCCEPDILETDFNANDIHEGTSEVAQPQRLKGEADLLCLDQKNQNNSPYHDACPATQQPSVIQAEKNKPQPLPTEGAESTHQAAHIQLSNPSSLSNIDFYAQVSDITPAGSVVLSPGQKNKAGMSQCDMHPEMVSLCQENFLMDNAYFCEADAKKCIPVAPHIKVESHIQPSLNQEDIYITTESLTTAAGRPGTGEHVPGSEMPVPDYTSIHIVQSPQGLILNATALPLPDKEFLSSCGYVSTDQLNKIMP

Row | drug efflux rate (DiOC2 dye), pancreatic cancer cells, 120 minutes | percentage of drug retention after 120 minutes, pancreatic cancer cells | Substance
1 | 2 fold | 83% | pegvisomant (SOMAVERT) (ligand)
2 | 2 fold | 83% | Compound G (hGHR antagonist hGH-G120K having T142 and H151 changed to cysteine and having both added cysteines conjugated with dPEG-A) (from UniProt P01241 27-217) (ligand)
